The values below are quoted from earlier work in article PMC9249222.

For orientation: Kd means the constant that tells how readily two partners part at equilibrium.

In series [1] the target is UBR5 HECT PAM2L (Homo sapiens) (UniProt O95071).
The next series concerns the target PAIP PAM2 (Homo sapiens) (UniProt Q9H074).

Sequence of UBR5 MLLE (O95071 2377-2454): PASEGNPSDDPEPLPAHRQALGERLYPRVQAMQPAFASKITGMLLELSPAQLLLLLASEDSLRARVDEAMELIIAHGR
Sequence of PAIP PAM2 (Homo sapiens) (Q9H074 116-143): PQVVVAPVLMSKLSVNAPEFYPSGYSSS

Take UBR5 MLLE (from UniProt O95071): the results for the Kd (in series [1]; in the series with PAIP PAM2 (Homo sapiens)) were 50 µM and 3.4 µM, respectively.
